# Laboratory results from patent US20100273669A1.
# Biological target: MBP2-ISEF-N1G1N2-(…)-NVDE1-184-…-FKBP2-GSRS-6His (bacteriophage M13; yeast; human) (UniProt P69168)
# Assay: cell-based or functional assay
# MBP2-ISEF-N1G1N2-(…)-NVDE1-184-…-FKBP2-GSRS-6His (bacteriophage M13; yeast; human), sequence (P69168 19-265, tags or fused parts left off): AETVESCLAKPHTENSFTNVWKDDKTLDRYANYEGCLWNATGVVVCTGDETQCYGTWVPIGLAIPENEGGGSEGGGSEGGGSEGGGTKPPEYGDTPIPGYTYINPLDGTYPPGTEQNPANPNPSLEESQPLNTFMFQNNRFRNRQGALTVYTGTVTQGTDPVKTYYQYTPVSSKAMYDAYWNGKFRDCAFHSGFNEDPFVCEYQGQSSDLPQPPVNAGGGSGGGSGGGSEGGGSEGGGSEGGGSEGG
substance,measurement,value
phage displaying the fusion protein FRB-TS-CVDE390-454-GSGGGS-CTg3p (from UniProt P42345 2021-2113; P17255 390-454),"phages recovering infecting ability counted as colony forming units, with against without rapamycin (10 µM)",100 times
